{"source": "IntAct's records for PubMed 21804599", "parents": {"B1": {"name": "\"Na(+)/H(+) exchange regulatory cofactor NHE-RF1\" (Homo sapiens), O14745 (parent)", "chain": "MSADAAAGAPLPRLCCLEKGPNGYGFHLHGEKGKLGQYIRLVEPGSPAEKAGLLAGDRLVEVNGENVEKETHQQVVSRIRAALNAVRLLVVDPETDEQLQKLGVQVREELLRAQEAPGQAEPPAAAEVQGAGNENEPREADKSHPEQRELRPRLCTMKKGPSGYGFNLHSDKSKPGQFIRSVDPDSPAEASGLRAQDRIVEVNGVCMEGKQHGDVVSAIRAGGDETKLLVVDRETDEFFKKCRVIPSQEHLNGPLPVPFTNGEIQKENSREALAEAALESPRPALVRSASSDTSEELNSQDSPPKQDSTAPSSTSSSDPILDFNISLAMAKERAHQKRSSKRAPQMDWSKKNELFSNL", "partner": "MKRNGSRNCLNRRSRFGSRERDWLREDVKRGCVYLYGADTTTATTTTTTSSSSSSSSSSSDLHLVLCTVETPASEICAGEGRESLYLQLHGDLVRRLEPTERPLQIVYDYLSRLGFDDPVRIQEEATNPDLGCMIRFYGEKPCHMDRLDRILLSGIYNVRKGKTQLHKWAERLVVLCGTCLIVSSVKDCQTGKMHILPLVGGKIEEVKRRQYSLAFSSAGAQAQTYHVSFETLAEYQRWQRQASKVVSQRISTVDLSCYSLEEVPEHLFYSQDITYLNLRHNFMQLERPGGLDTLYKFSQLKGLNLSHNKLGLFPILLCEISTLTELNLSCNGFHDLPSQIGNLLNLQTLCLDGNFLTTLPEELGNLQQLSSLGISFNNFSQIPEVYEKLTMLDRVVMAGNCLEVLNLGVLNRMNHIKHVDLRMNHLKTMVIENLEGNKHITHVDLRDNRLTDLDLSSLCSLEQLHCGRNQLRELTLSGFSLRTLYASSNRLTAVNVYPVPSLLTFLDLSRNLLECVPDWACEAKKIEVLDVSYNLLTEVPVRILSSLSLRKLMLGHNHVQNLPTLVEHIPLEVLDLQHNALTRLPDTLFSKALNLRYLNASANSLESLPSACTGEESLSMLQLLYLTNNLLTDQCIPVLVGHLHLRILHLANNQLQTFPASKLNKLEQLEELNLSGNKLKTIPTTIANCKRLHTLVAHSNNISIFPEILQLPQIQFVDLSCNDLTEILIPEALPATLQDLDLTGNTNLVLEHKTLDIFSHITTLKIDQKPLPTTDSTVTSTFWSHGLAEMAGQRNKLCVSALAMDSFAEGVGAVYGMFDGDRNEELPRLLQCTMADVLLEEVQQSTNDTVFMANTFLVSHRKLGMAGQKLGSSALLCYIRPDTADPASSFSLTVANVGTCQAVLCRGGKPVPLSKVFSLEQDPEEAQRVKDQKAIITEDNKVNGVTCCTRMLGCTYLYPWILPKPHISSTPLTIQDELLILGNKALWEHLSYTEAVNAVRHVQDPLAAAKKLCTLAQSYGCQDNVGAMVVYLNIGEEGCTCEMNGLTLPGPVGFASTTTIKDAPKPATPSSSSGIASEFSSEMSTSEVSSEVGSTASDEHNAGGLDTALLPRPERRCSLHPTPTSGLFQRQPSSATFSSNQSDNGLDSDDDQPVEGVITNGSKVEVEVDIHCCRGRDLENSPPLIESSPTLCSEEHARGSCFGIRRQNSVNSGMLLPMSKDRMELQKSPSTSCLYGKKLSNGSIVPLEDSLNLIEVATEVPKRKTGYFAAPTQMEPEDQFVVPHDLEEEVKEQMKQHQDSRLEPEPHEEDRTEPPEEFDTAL"}, "B2": {"name": "\"Na(+)/H(+) exchange regulatory cofactor NHE-RF1\" (Homo sapiens), O14745 (parent)", "chain": "B1 chain", "partner": "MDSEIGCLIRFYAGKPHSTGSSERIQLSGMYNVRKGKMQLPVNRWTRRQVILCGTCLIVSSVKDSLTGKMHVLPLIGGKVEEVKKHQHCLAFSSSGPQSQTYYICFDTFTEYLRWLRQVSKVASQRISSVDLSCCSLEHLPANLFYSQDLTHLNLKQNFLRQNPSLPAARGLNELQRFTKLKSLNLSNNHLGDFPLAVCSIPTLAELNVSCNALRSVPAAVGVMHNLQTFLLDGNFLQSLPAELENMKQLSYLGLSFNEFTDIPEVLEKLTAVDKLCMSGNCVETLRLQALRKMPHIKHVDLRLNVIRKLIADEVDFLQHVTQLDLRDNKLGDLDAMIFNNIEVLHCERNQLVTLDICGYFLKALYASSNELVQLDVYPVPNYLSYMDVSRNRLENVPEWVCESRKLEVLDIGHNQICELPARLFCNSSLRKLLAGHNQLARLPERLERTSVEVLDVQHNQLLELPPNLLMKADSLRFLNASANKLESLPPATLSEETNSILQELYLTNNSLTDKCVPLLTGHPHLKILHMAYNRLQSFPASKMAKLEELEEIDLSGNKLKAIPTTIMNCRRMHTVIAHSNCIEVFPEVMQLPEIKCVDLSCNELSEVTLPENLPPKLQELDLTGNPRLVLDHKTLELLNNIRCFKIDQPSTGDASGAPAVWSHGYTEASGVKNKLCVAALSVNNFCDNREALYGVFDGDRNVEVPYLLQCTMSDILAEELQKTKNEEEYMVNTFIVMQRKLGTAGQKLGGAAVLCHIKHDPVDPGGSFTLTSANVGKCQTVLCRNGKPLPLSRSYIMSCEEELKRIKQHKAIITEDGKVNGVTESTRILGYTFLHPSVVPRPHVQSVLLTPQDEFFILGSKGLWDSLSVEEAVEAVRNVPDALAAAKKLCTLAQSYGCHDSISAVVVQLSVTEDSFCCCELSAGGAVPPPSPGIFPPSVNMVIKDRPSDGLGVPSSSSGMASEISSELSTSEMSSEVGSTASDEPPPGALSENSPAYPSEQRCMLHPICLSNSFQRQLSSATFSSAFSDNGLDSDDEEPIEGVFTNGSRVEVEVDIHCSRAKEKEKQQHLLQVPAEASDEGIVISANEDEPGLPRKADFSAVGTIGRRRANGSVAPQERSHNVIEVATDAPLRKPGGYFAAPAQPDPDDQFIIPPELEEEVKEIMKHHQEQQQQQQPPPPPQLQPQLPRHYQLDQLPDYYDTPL"}}, "data": [{"variants_of": "B1", "conditions": "with phlp2_human PHLPP2, Q6ZVD8", "values": [{"variant": "MSADAAAGAPLPRLCCLEKGPNGYGFHLHGEKGKLGRYIRLVEPGSPAEKAGLLAGDRLVEVNGENVEKETHQQVVSRIRAALNAVRLLVVDPETDEQLQKLGVQVREELLRAQEAPGQAEPPAAAEVQGAGNENEPREADKSHPEQRELRPRLCTMKKGPSGYGFNLHSDKSKPGQFIRSVDPDSPAEASGLRAQDRIVEVNGVCMEGKQHGDVVSAIRAGGDETKLLVVDRETDEFFKKCRVIPSQEHLNGPLPVPFTNGEIQKENSREALAEAALESPRPALVRSASSDTSEELNSQDSPPKQDSTAPSSTSSSDPILDFNISLAMAKERAHQKRSSKRAPQMDWSKKNELFSNL", "note": "[Q37R]", "effect of a mutation on the interaction": "disrupting interaction"}]}, {"variants_of": "B2", "conditions": "with PHLPP1, O60346-2", "values": [{"variant": "MSADAAAGAPLPRLCCLEKGPNGYGFHLHGEKGKLGRYIRLVEPGSPAEKAGLLAGDRLVEVNGENVEKETHQQVVSRIRAALNAVRLLVVDPETDEQLQKLGVQVREELLRAQEAPGQAEPPAAAEVQGAGNENEPREADKSHPEQRELRPRLCTMKKGPSGYGFNLHSDKSKPGQFIRSVDPDSPAEASGLRAQDRIVEVNGVCMEGKQHGDVVSAIRAGGDETKLLVVDRETDEFFKKCRVIPSQEHLNGPLPVPFTNGEIQKENSREALAEAALESPRPALVRSASSDTSEELNSQDSPPKQDSTAPSSTSSSDPILDFNISLAMAKERAHQKRSSKRAPQMDWSKKNELFSNL", "note": "[Q37R]", "effect of a mutation on the interaction": "disrupting interaction"}]}]}
